Test results: article PMC11306496, “Myosin Va-dependent Transport of NMDA Receptors in Hippocampal Neurons” (Neuroscience Bulletin, 2024)

Target: T1, myosin Va (rat (endogenous in hippocampus), UniProt Q9QYF3 1-1828)
T1 construct: myosin Va, rat, endogenous in hippocampus; also called MyoVa; source: endogenous, rat hippocampal homogenate
Experiment: co-IP; total rat hippocampal lysates with primary antibody and Protein A/G agarose, 4°C; buffer pH 7.4, 0.05 mol/L HEPES, 0.15 mol/L NaCl, 0.5% NP-40, 1% Triton X-100; non-immune IgG as control; slices untreated or treated with PMA (0.5 umol/L, 10 min) and/or AIP (1 umol/L)
Details: partners not purified

T1 sequence (Q9QYF3 whole entry): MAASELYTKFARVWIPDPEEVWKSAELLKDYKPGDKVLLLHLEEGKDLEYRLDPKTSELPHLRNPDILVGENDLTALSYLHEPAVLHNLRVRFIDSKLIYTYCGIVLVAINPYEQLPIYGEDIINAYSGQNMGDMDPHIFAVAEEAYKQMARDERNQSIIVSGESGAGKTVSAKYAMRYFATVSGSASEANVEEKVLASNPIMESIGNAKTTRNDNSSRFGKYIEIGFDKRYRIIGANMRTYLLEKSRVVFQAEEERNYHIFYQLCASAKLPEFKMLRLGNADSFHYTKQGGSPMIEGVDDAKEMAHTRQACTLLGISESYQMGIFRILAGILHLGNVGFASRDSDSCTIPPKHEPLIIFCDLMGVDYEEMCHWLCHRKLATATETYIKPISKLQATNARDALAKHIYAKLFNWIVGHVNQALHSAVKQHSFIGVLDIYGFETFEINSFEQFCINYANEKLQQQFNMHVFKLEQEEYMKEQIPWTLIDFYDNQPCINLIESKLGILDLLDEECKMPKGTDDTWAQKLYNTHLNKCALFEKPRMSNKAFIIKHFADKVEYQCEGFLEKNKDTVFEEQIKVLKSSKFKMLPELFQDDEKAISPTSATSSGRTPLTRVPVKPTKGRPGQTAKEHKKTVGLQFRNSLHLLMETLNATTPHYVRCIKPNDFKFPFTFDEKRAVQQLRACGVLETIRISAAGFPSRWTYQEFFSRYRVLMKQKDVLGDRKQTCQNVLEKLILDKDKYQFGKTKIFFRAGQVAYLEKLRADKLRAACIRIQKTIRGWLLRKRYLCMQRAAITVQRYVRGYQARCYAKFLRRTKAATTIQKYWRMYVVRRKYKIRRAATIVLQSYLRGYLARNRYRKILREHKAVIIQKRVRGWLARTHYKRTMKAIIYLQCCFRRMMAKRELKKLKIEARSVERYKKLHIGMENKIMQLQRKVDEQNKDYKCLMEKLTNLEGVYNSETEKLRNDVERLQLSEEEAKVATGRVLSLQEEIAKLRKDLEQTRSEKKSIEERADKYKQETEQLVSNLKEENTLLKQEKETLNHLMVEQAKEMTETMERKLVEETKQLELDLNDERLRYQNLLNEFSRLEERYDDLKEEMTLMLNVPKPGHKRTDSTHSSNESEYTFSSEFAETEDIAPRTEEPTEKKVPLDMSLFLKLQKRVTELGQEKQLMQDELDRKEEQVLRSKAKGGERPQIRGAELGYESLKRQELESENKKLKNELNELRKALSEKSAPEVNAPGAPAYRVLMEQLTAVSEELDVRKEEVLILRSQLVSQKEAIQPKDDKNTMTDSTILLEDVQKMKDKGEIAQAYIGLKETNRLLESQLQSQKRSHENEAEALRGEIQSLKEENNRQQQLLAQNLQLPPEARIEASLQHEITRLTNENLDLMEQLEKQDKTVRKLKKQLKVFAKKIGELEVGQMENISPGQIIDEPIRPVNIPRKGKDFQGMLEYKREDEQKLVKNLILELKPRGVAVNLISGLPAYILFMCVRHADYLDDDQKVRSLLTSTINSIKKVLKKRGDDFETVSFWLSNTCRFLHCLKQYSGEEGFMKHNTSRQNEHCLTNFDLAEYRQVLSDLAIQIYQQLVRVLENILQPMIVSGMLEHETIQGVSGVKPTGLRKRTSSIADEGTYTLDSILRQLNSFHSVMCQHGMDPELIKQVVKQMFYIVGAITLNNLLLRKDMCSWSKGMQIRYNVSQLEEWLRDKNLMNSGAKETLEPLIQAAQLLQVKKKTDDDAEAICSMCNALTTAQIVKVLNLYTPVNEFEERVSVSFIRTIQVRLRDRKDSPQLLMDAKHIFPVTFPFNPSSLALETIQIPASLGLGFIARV

B1: NMDA receptor subunit GluN2A (receptor)
chain: not shown
notes: NMDA receptor subunit GluN2A, rat, endogenous in hippocampus; source: endogenous, rat hippocampal homogenate (slices or cultured hippocampal neurons)
For B1, the “co-IP signal with PMA, normalised to control (IP with anti-MyoVa)” value was 1.59 fold of control.
